Data published in US20180028693A1.

Target: GvpA of Anabaena flos-aquae gas vesicles (GvpA-based shell of urea-stripped Ana GVs) (Anabaena flos-aquae) (UniProt P10397)
Assay: SDS-PAGE of ST-Ana GVs against a standard curve of GvpC-ST

Sequence of UniProt P10397 (P10397 2-71): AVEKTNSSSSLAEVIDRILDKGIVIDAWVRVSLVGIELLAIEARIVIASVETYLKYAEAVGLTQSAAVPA

B1: GvpC-SpyTag (GvpC comprising a SpyTag fused to the C-terminus, and a His-tag fused to the C-terminus of the SpyTag) (protein)
chain: MGISLMAKIRQEHQSIAEKVAELSLETREFLSVTTAKRQEQAEKQAQELQAFYKDLQETSQQFLSETAQARIAQAEKQAQELLAFHKELQETSQQFLSATAQARIAQAEKQAQELLAFYQEVRETSQQFLSATAQARIAQAEKQAQELLAFHKELQETSQQFLSATADARTAQAKEQKESLLKFRQDLFVSIFGSGAHIVMVDAYKPTKGSGLEHHHHHH
  SpyTag functionalities per GV: 1000 per GV
